This passage reports Kd, koff and kon results from patent US20130251724A1 (GlaxoSmithKline, published 2013).

Assay [1] has as its target T1, Human OSM (human, UniProt P13725 26-221).
T1 construct: Recombinant human OSM; also called hOSM; human Oncostatin M
T1 sequence: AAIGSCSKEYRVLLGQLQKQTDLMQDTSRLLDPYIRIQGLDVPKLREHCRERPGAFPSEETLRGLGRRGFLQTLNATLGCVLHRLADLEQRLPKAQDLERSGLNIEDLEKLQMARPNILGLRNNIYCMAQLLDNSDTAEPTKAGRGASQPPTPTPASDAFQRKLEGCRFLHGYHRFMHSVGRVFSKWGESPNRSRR
Kind of assay: SPR (ProteOn XPR36 or Biacore T100), captured supernatant, OSM as analyte. The protocol: The initial kinetic analyses for the CDRH3 screen were carried out on the ProteOn XPR36 (Biorad Laboratories) and certain supernatants were selected for more accurate kinetic analysis on the BiaCore T100.
For the ProteOn analysis, anti-human IgG (GE Healthcare/Biacore BR-1008-39) was coupled to a GLM chip (Biorad Laboratories 176-5012) by primary amine coupling. The CDRH3 variants were captured directly on to this surface and recombinant human OSM was passed over the captured antibody surface at 256, 64, 16, 4 and 1 nM, with a buffer injection alone (i.e. 0 nM) used to double reference the binding curves. Following the OSM binding event, the capture surfaces were regenerated: with 3M MgCl₂ the regeneration removed the previously captured antibody ready for another cycle of capture and binding analysis. The data was then fitted to the 1:1 model (with mass transport) inherent to the ProteOn analysis software. The run was carried out using HBS-EP (Biacore/GE-Healthcare BR-1006-69) and the analysis temperature was 25° C.
A similar method was used for analysis of constructs using the Biacore T100, anti-human IgG (GE Healthcare/Biacore BR-1008-39) was coupled to a CM5 chip (GE Healthcare/Biacore BR-1006-68) by primary amine coupling, antibodies were captured on this surface and recombinant human OSM was passed over the captured antibody surface at 256, 64, 16, 4 and 1 nM, with a buffer injection alone (i.e. 0 nM) used to double reference the binding curves. Regeneration was by using pulses of 3M 3M MgCl₂ or 100 mM phosphoric acid or using both reagents. The data was fitted to the 1:1 model inherent to the Biacore T100 analysis software. The run was carried out using HBS-EP (Biacore/GE-Healthcare BR-1006-69) and the analysis temperature was 25° C.

Assay [2] has as its target T1, Human OSM. Kind of assay: BIAcore kinetics, transfection supernatant. (In SPR one partner is held on a chip, and binding of the other changes the refractive index at the surface.)

B1: Pos 95 Ala (antibody, V domains shown)
VH: EVQLVESGGGLVQPGGSLRLSCAASGFTFSSYAMSWVRQAPGKGLEWVATISDGGSFTYYLDNVRGRFTISRDNAKNSLYLQMNSLRAEDTAVYYCARAVGHTTFWYFDVWGRGTLVTVSS
VL: DIVMTQSPDSLAVSLGERATINCRASKSVSAAGYNFMHWYQQKPGQPPKVLIYYASNLESGVPDRFSGSGSGTDFTLTISSLQAEDVAVYYCLHSREFPFTFGGGTKVEIKR
notes: the same holds for f2 to f171; also called CDRH3 D95>A
For the molecule B1, in the assay with Human OSM [1], the Kd (in general, the concentration at which binding is half-saturated) came to 576 pM.

B2: Humanised 10G8 H0L0 (antibody, V domains shown)
VH: EVQLVESGGGLVQPGGSLRLSCAASGFTFSNYAMSWVRQAPGKGLEWVATISDGGSFTYYLDNVRGRFTISRDNAKNSLYLQMNSLRAEDTAVYYCARDVGHTTFWYFDVWGRGTLVTVSS
VL: DIVMTQSPDSLAVSLGERATINCRASKSVSAAGYNFMHWYQQKPGQPPKLLIYYASNLESGVPDRFSGSGSGTDFTLTISSLQAEDVAVYYCLHSREFPFTFGGGTKVEIK
Turning to B2, in the assay with Human OSM [2], binding was characterised by a dissociation constant (Kd) of 435 pM; the koff (in general, the rate constant with which the complex falls apart) was 0.00016 s⁻¹; the kon (usually the rate constant with which the complex forms) was found to be 369000 M⁻¹ s⁻¹.

B3: Humanised 10G8 H2L2 (antibody, V domains shown)
VH: EVQLVESGGGLVQPGGSLRLSCAASGFTFSNYAMSWVRQAPGKGLEWVATISDGGSFTYYLDNVRGRFTISRDNAKNSLYLQMNSLRAEDTAVYYCARDVGHTTFWYFDVWGSGTLVTVSS
VL: DIVMTQSPDSLAVSLGERATINCRASKSVSAAGYNFMHWYQQKPGQPPKLLIYYASNLESGVPDRFSGSGSGTDFTLTISSLQAEDVVVYYCLHSREFPFTFGGGTKVEIK
In the assay with Human OSM [2], B3 returned a Kd of 387 pM, a koff of 0.000142 s⁻¹ and a kon of 368000 M⁻¹ s⁻¹.

B4: Pos 95 Gln (antibody, V domains shown)
VH: EVQLVESGGGLVQPGGSLRLSCAASGFTFSSYAMSWVRQAPGKGLEWVATISDGGSFTYYLDNVRGRFTISRDNAKNSLYLQMNSLRAEDTAVYYCARQVGHTTFWYFDVWGRGTLVTVSS
VL: DIVMTQSPDSLAVSLGERATINCRASKSVSAAGYNFMHWYQQKPGQPPKVLIYYASNLESGVPDRFSGSGSGTDFTLTISSLQAEDVAVYYCLHSREFPFTFGGGTKVEIKR
notes: also called CDRH3 D95>Q
In the assay with Human OSM [1], B4 showed a Kd of 570 pM.

B5: Humanised 10G8 H2L3 (antibody, V domains shown)
VH: EVQLVESGGGLVQPGGSLRLSCAASGFTFSNYAMSWVRQAPGKGLEWVATISDGGSFTYYLDNVRGRFTISRDNAKNSLYLQMNSLRAEDTAVYYCARDVGHTTFWYFDVWGSGTLVTVSS
VL: DIVMTQSPDSLAVSLGERATINCRASKSVSAAGYNFMHWYQQKPGQPPKLLIYYASNLESGVPDRFSGSGSGTDFTLTISSLQAEDVAVYYCLHSREFPFTFGGGTNVEIK
In the case of B5, in the assay with Human OSM [2], the Kd is 398 pM, the off-rate constant (koff) is 0.00015 s⁻¹ and the kon amounted to 376000 M⁻¹ s⁻¹.

B6: Humanised 10G8 H1L0 (antibody, V domains shown)
VH: EMQLVESGGGLVQPGGSLRLSCAASGFTFSNYAMSWVRQAPGKGLEWVATISDGGSFTYYLDNVRGRFTISRDNAKNSLYLQMNSLRAEDTAVYYCARDVGHTTFWYFDVWGRGTLVTVSS
VL: DIVMTQSPDSLAVSLGERATINCRASKSVSAAGYNFMHWYQQKPGQPPKLLIYYASNLESGVPDRFSGSGSGTDFTLTISSLQAEDVAVYYCLHSREFPFTFGGGTKVEIK
In the assay with Human OSM [2], B6 registered a Kd of 425 pM, a koff of 0.000162 s⁻¹ and a kon of 381000 M⁻¹ s⁻¹.

B7: Humanised 10G8 H0L3 (antibody, V domains shown)
VH: EVQLVESGGGLVQPGGSLRLSCAASGFTFSNYAMSWVRQAPGKGLEWVATISDGGSFTYYLDNVRGRFTISRDNAKNSLYLQMNSLRAEDTAVYYCARDVGHTTFWYFDVWGRGTLVTVSS
VL: DIVMTQSPDSLAVSLGERATINCRASKSVSAAGYNFMHWYQQKPGQPPKLLIYYASNLESGVPDRFSGSGSGTDFTLTISSLQAEDVAVYYCLHSREFPFTFGGGTNVEIK
In the assay with Human OSM [2], B7 yielded a Kd of 388 pM, a koff of 0.000145 s⁻¹ and a kon of 374000 M⁻¹ s⁻¹.

B8: Humanised 10G8 H1L2 (antibody, V domains shown)
VH: EMQLVESGGGLVQPGGSLRLSCAASGFTFSNYAMSWVRQAPGKGLEWVATISDGGSFTYYLDNVRGRFTISRDNAKNSLYLQMNSLRAEDTAVYYCARDVGHTTFWYFDVWGRGTLVTVSS
VL: DIVMTQSPDSLAVSLGERATINCRASKSVSAAGYNFMHWYQQKPGQPPKLLIYYASNLESGVPDRFSGSGSGTDFTLTISSLQAEDVVVYYCLHSREFPFTFGGGTKVEIK
As to B8, in the assay with Human OSM [2], the Kd turned out to be 445 pM, the koff was 0.000163 s⁻¹ and the kon is 365000 M⁻¹ s⁻¹.

B9: Pos 95 Leu (antibody, V domains shown)
VH: EVQLVESGGGLVQPGGSLRLSCAASGFTFSSYAMSWVRQAPGKGLEWVATISDGGSFTYYLDNVRGRFTISRDNAKNSLYLQMNSLRAEDTAVYYCARLVGHTTFWYFDVWGRGTLVTVSS
VL: DIVMTQSPDSLAVSLGERATINCRASKSVSAAGYNFMHWYQQKPGQPPKVLIYYASNLESGVPDRFSGSGSGTDFTLTISSLQAEDVAVYYCLHSREFPFTFGGGTKVEIKR
notes: also called CDRH3 D95>L
Molecule B9 displayed a Kd with Human OSM [1] of 568 pM.

B10: Pos 95 His (antibody, V domains shown)
VH: EVQLVESGGGLVQPGGSLRLSCAASGFTFSSYAMSWVRQAPGKGLEWVATISDGGSFTYYLDNVRGRFTISRDNAKNSLYLQMNSLRAEDTAVYYCARHVGHTTFWYFDVWGRGTLVTVSS
VL: DIVMTQSPDSLAVSLGERATINCRASKSVSAAGYNFMHWYQQKPGQPPKVLIYYASNLESGVPDRFSGSGSGTDFTLTISSLQAEDVAVYYCLHSREFPFTFGGGTKVEIKR
notes: also called CDRH3 D95>H
Consider B10, for which binding with Human OSM [1] was put at a Kd of 499 pM.

B11: Pos 95 Glu (antibody, V domains shown)
VH: EVQLVESGGGLVQPGGSLRLSCAASGFTFSSYAMSWVRQAPGKGLEWVATISDGGSFTYYLDNVRGRFTISRDNAKNSLYLQMNSLRAEDTAVYYCAREVGHTTFWYFDVWGRGTLVTVSS
VL: DIVMTQSPDSLAVSLGERATINCRASKSVSAAGYNFMHWYQQKPGQPPKVLIYYASNLESGVPDRFSGSGSGTDFTLTISSLQAEDVAVYYCLHSREFPFTFGGGTKVEIKR
notes: also called CDRH3 D95>E
With B11, in the assay with Human OSM [1], the affinity, expressed as Kd, was 785 pM.

B12: Humanised 10G8 H0L2 (antibody, V domains shown)
VH: EVQLVESGGGLVQPGGSLRLSCAASGFTFSNYAMSWVRQAPGKGLEWVATISDGGSFTYYLDNVRGRFTISRDNAKNSLYLQMNSLRAEDTAVYYCARDVGHTTFWYFDVWGRGTLVTVSS
VL: DIVMTQSPDSLAVSLGERATINCRASKSVSAAGYNFMHWYQQKPGQPPKLLIYYASNLESGVPDRFSGSGSGTDFTLTISSLQAEDVVVYYCLHSREFPFTFGGGTKVEIK
With B12, in the assay with Human OSM [2], binding was put at a Kd of 375 pM, the koff amounted to 0.000137 s⁻¹ and the kon stood at 365000 M⁻¹ s⁻¹.

B13: Humanised 10G8 H2L0 (antibody, V domains shown)
VH: EVQLVESGGGLVQPGGSLRLSCAASGFTFSNYAMSWVRQAPGKGLEWVATISDGGSFTYYLDNVRGRFTISRDNAKNSLYLQMNSLRAEDTAVYYCARDVGHTTFWYFDVWGSGTLVTVSS
VL: DIVMTQSPDSLAVSLGERATINCRASKSVSAAGYNFMHWYQQKPGQPPKLLIYYASNLESGVPDRFSGSGSGTDFTLTISSLQAEDVAVYYCLHSREFPFTFGGGTKVEIK
Turning to B13, in the assay with Human OSM [2], binding was put at a Kd of 398 pM, the koff came out at 0.000145 s⁻¹ and the kon is 363000 M⁻¹ s⁻¹.

B14: Humanised 10G8 H1L3 (antibody, V domains shown)
VH: EMQLVESGGGLVQPGGSLRLSCAASGFTFSNYAMSWVRQAPGKGLEWVATISDGGSFTYYLDNVRGRFTISRDNAKNSLYLQMNSLRAEDTAVYYCARDVGHTTFWYFDVWGRGTLVTVSS
VL: DIVMTQSPDSLAVSLGERATINCRASKSVSAAGYNFMHWYQQKPGQPPKLLIYYASNLESGVPDRFSGSGSGTDFTLTISSLQAEDVAVYYCLHSREFPFTFGGGTNVEIK
In the assay with Human OSM [2], B14 returned a Kd of 344 pM, a koff of 0.000127 s⁻¹ and a kon of 371000 M⁻¹ s⁻¹.

B15: Pos 95 Met (antibody, V domains shown)
VH: EVQLVESGGGLVQPGGSLRLSCAASGFTFSSYAMSWVRQAPGKGLEWVATISDGGSFTYYLDNVRGRFTISRDNAKNSLYLQMNSLRAEDTAVYYCARMVGHTTFWYFDVWGRGTLVTVSS
VL: DIVMTQSPDSLAVSLGERATINCRASKSVSAAGYNFMHWYQQKPGQPPKVLIYYASNLESGVPDRFSGSGSGTDFTLTISSLQAEDVAVYYCLHSREFPFTFGGGTKVEIKR
notes: also called CDRH3 D95>M
As for B15, the Kd with Human OSM [1] was determined as 649 pM.

B16: Pos 95 Gly (antibody, V domains shown)
VH: EVQLVESGGGLVQPGGSLRLSCAASGFTFSSYAMSWVRQAPGKGLEWVATISDGGSFTYYLDNVRGRFTISRDNAKNSLYLQMNSLRAEDTAVYYCARGVGHTTFWYFDVWGRGTLVTVSS
VL: DIVMTQSPDSLAVSLGERATINCRASKSVSAAGYNFMHWYQQKPGQPPKVLIYYASNLESGVPDRFSGSGSGTDFTLTISSLQAEDVAVYYCLHSREFPFTFGGGTKVEIKR
notes: also called CDRH3 D95>G
In the case of B16, the affinity with Human OSM [1], expressed as Kd, was 517 pM.
